Measurements as given in article PMC2413427, “Free Brick1 Is a Trimeric Precursor in the Assembly of a Functional Wave Complex” (PLoS ONE, 2008).
Blank lines part the entries; values can stand above or below the molecule they belong to.

Key:
[1] = target: human Brk1, in vitro translated, N-terminally tagged (PC-Brk1; the other copies in the self-association experiments are SBP-, Flag- or HA-Brk1) (human) (UniProt Q8WUW1); experiment: co-IP; PC-Brk1, SBP-Brk1 and HA-Wave2 co-translated in vitro; PC immunoprecipitation, then SBP precipitation or HA immunoprecipitation as a second step
[2] = target: the molecule itself; experiment: cross-linking; pooled SEC fractions of partially purified free untagged Brk1; glutaraldehyde 0.2% final or 2-fold dilutions, 50 mM Tris pH 8.0, 10 min, room temperature; Brk1 western blot
[3] = target: the molecule itself; experiment: co-IP; PC-, SBP-, Flag- and HA-Brk1 co-produced by in vitro translation with 35S-methionine; three sequential native precipitations (PC eluted with EDTA, SBP on streptavidin eluted with biotin, then Flag or HA); autoradiography

stoichiometry N [1]: 1
Molecule: HA-Wave2, in vitro translated (from UniProt Q9Y6W5 1-498) (natural protein)

B1: untagged Brk1 (free Brk1), partially purified from transfected 293T cells (natural protein, human, UniProt Q8WUW1 1-75, looked up)
chain: MAGQEDPVQREIHQDWANREYIEIITSSIKKIADFLNSFDMSCRSRLATLNEKLTALERRIEYIEARVTKGETLT
notes: Brick1 (Brk1, Hspc300), human, untagged cDNA; printed mass 8.7 kDa; that is not this construct; The fraction holds many other proteins but no Wave complex; also called Brick1; Hspc300; source: 293T, transfected with pCS2-Brk1, partially purified (35%-55% ammonium sulfate cut, SEC on superdex-200)
stoichiometry N [2]: 3

B2: human Brk1, in vitro translated, N-terminally tagged (PC-Brk1; the other copies in the self-association experiments are SBP-, Flag- or HA-Brk1) (natural protein, UniProt Q8WUW1 1-75, looked up)
chain: B1 chain
notes: Brick1 (Brk1, Hspc300), human; One molecule stands for the differently tagged copies of human Brk1 that were co-translated; also called SBP-Brk1; Flag-Brk1; source: in vitro translated (TnT, rabbit reticulocyte lysate, 35S-methionine), pCS2 plasmid; not shown: PC, N-terminal, kept
stoichiometry N [3]: 3
